Results on two substances are retold here after article PMC12830604.

This assay concerns the target Gαq construct with N-terminal fusion of LgBiT (UniProt P50148). As to the kind of experiment: NanoBiT Gαq-recruitment assay (concentration-response to LTC4). The settings on record: read at log[LTC4, (M)] = -6, the highest concentration; n = 3, mean ± s.e.m.; parent: est. 97; read off a plot; scale: normalized Gq response.

As for “CysLT2R with C-terminal SmBiT (wild type, NanoBiT Gαq-recruitment assay) (from UniProt Q9NS75) R136A”, the response turned out to be 0. For “CysLT2R with C-terminal SmBiT (wild type, NanoBiT Gαq-recruitment assay) (from UniProt Q9NS75) S241A” the value was 57.
